Measurements reported in paper PMC3485338.

Key:
[1] = molecular target: T1, Spo0A-DBD-6xHis (Clostridium difficile 630Δerm) (UniProt I6ZTX1); experiment: EMSA; details: EMSA: 10 mM Tris-HCl pH 7.6, 1 mM EDTA, 50 mM NaCl, 1 mM DTT, 5% glycerol, 200 ug/mL BSA, 200 cpm/uL 32P-DNA, 20 min at 30 C; 8% native PAGE in 1x TAE
T1 sequence: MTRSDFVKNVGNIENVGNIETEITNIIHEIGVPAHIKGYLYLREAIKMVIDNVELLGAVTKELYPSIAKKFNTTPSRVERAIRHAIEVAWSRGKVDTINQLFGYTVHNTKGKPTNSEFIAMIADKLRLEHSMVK

[2] = tested on: Spo0A-DBD-6xHis (Clostridium difficile 630Δerm); experiment: EMSA; details: EMSA: 10 mM Tris-HCl pH 7.6, 1 mM EDTA, 50 mM NaCl, 1 mM DTT, 5% glycerol, 200 ug/mL BSA, 200 cpm/uL 32P-DNA, 20 min at 30 C; 8% native PAGE in 1x TAE

Row | Substance | binding signal (fold lower affinity than PabrB) [2] | other results
1 | CAATTCTGTATTCCATTTATGTATCCCTCCATAACGGTTGCTTCAATAGATCATAATTCGCCAATGACACAAAAAATCCTTTTTATTTTTCGATCTTGGCAGATTTTAATTTTAATTCAAGATATACGCGGGAATCCTTTGAATATTTGTATTTTGGATTTGTCCTGCCGTACTCCTTTGATGTATAAGAGACATCATAATGCTGTTCAAATGATCTAATGAGCTGTTCAATTTCTTCTTGTTTTCCAGCTAGCCTTACCTGTGCCACTTCGTATCCTCCGCTTTCA (double strand) [PcitG] | – | binding [1]: no binding
2 | PabrB C4A | 10 | –
3 | PabrB G5A | 10 | –
4 | PabrB | – | Kd [2]: < 50 nM
5 | PabrB G2A | 10 | –
6 | AGGATTTTTAGTAGGATAATAGCTTTATTAAATATTTATAAAATGCTGTTATTTCGGTAGTTTCCAAGACATTACTGACTATAAGAACTAATTCTTACAATCAATAGTAAACAAAATGATTGACGATTATTGGAAACCTTGTTATGCTATGAAGGTAAGGATTTTGTCGAATAATGACGAAGAAAAATATAATTTAAACAAATAAGTATCTCTTGGGAG (double strand) [PabrB] | – | Kd [1]: < 50 nM
